# Reference: the DeepSol protein solubility set
# Assay: soluble on expression in E. coli; label from the status in PepcDB or PDB records
row,Sequence,soluble on expression in E. coli
1,GMGILSGNPQDEPLHYGEVFSTWTYLSTNNGLINGYRSFINHTGDEDLKNLIDEAIQAMQDENHQLEELLRSNGVGLPPAPPDRPAARLDDIPVGARFNDPEISATISMDVAKGLVTCSQIIGQSIREDVALMFSQFHMAKVQFGGKMLKLNKNKGWLIPPPLHSDRPIKE,soluble
2,GPGSMRGKRFATPTGQPGMRQGGYTQLHAVSASTSPGRRPTAKHCAPSASQKELFTSQALSRPRPTEAHALSSSTPERRFQAVQRSSTQSSMPSTSVHHMLNELVDLSHSIAALLEQGQVLSLTAAPSAADRQQEASLKTQEIERIVRRVEAHFVDRIQSLETLNASLSEEVRQLRGALATQRTNGAEGRANVVQDIRGGDLQEDSKTLDACERASWDEPGNGAASSEVEHLRRVLMAEKRQRLRVEEQTQSLTEQHAKVVGTLERRLKKQEEQLYDLIAAIDRGYGGGSVTTSASPTRCTERGSSHRLPTPRHLLRQQLAQHQQTQRALQQYKENLRLEPPSPAGSDEVSATMKELGLDDVRRTLELIRSSKPLTVQEHHHDQEETHTAPAVCSPPHTARDGPAVVHSPRVCSQVPPPAADRAACTSGTEVDEITAFLENITKELESLDSQ,soluble
3,MSLVTLADANPAQLAPFAGGAFEVAPLDVADEAALTVFLTRQDIVVSACPYFLNKTIARVAVATGTHYFDLTEDVETTAFIKALGETADVALVPQCGLAPGFICILGADMAARFERVKSVKMRVGALPLYPTNALSYNVTWSVDGLINEYCNPCEIVFEGRPTLVPALEGLEHVMIDGVSYEAFNTSGGLGTLTETLDGRVSDLSYKTLRYPGHAEIMKLLLRGLELADDRETLRRILNRAAPFTRKDVVVVFVEGHHHHHH,not soluble
4,PHRPVQESVANAYDALGGYLEAKADFFDPDEAAWIGNRHIDLAMSNTGVITAFNQCRSALFYRLRGKHRHPRTAKMLRYYFAAQDIHERISSAHVDYQEMSEKFKNTDIIFRIHRLLEMQGQACRNTAQALRASKDYVYSKRLGRAIEGCRQSLRLLSDSNDSPDIRHLRRLLDNLGSVDQQFRQLQHNGLQAENDRMGDTRIAALETSSLKNTWQAIRPQLNLESGVFRH,not soluble
5,SLETFHFNYTLISICIYLYIYDGSFISLSEDHKPYNKKEKERIYKIGGFVENGRILGYIGVSRSFGDKNYKIKSDCPYNPHETMISCIPDIKIFYANCDDILFLGCDGLFEMLSWNDVAKFTYDCMNRHTLSDAVINILDYALLSGSKDNITIQIIKFFNE,soluble
6,MSLKAVFVYEPLGNENVKVEEVSEPKKEQGKVIIEVKKAGLNPIDYNVINGKIVYRLNPLPHIPGSEVYGIVKEDSGSFKKGERVIVYNRIFDGTCSQCISGNEHLCENGGIWGVVSNGGYSQLVQIDEKNVFRVPEDASDELAASIGVAALTSFRAIRISGCSPGRSILIYGASGNTGMFAVQLASMMGCDVYAVSRKDWIESFGAIEVFRPDNIPPDMKFDIIINPLGSLFWGDALKHLRTRGILVSFGVLTGREGSIDIADLYTGEKKILGSTGGTREDLRGLLEFMKTHELRVKIAREFKINEIKDALKYYSETHDGRILISMREGHHHHHH,not soluble
7,MGHHHHHHGGHMSLKNYFLQRRTLMTEQLPNCPECGSAYAYEDRGLFICPECGHEWSPTEEVAEEGLVVKDSNGNLLADGDSVTVIKDLKVKGASGAIKQGTKVKNIRLVEGDHNIDCKVDGFGPMKLKSEFVKKNEGGS,soluble
8,MEKLYDVIVVGAGTSGMMAAISAAEQGARVLLIEKNKKAGKKLLMTGGGRCNVTNNRPVDDLIAHIPGNGKFLYSTFAQWNNFDIMNFFESQGVHLKEEDHGRMFPVTNKSKTIIEALLNRLKELDVTLLFSTRVEKLIHKEHKIYGIRTEFEEFHAPAIILTTGGRTYPSTGSTGDGYKIVKRVGHTVTPLYATESPLISDEPYIQEKTLQGLSLQDITLRVLNKKGRVLTEHTMDLLFTHFGISGPAALRCSSFVNKELEKTGEPVTLSLDCFPTQTKQELIHILTEKSKATKKNLVNAWHGILPERLLVFFLERLEMDHLTGQQASQKQIQDFVQLCKEFKLSINKTFPIEKSFVTGGGVSLKEIYPKTLESKIIDGLYFAGELLDVNGYTGGFNITAAFATGHVAGMNAGQRA,soluble
9,MSLNIHIHSMTGFANAAAECGSKRINLDIRAVNHRFLDIQIRMPDDLRYLESGIREKISSHIARGKVECKIQIQDTENSRQSLELNSDLVNQLAEINKNLRKHHDLAKLGVADILRFPGVLASQRENTEELAKSITELTEKALKDFTAARRREGKKLGEHLLQRLESMEEIIDALSELFPTLLETHKEKIRARLVEAVGDINNDRLQQEFALFIQKSDIDEEFSRLRTHIAEVRRIVTEHKGSSGKRLDFLMQELNREANTLGSKSIAAECTQASVELKVLIEQMREQVQNIEEGHHHHHH,soluble
10,MGVFAQNLKFGHINAQEIVSAMPEFAKAQSDIEALDKQLTSELQRTQEEFNKKYQEFQQAIAKDSLPANIAERRQKELQDMMQRQEQFQQEAQQQMQKAQADAMAPIYKKLDDAIKAVGAAEGVIYIFDLARTPVAYVNESQSINLTPKVKTQLGIK,not soluble
11,MNDSSVIYRAIVTSKFRTEKMLNFYNSIGSGPDKNTIFITFGRSEPWSSNENEVGFAPPYPTDSVLGVTDMWTHMMGTVKVLPSMLDAVIPRRDWGDTRYPDPYTFRINDIVVCNSAPYNATESGAGWLVYRCLDVPDTGMCSIASLTDKDECLKLGGKWTPSARSMTPPEGRGDAEGTIEPGDGYVWEYLFEIPPDVSINRCTNEYIVVPWPEELKEDPTRWGYEDNLTWQQDDFGLIYRVKANTIRFKAYLDSVYFPEAALPGNKGFRQISIITNPLEAKAHPNDPNVKAEKDYYDPEDLMRHSGEMIYMENRPPIIMAMDQTEEINILFTF,soluble
12,QVQLQESGPGLVRPSQTLSLTCTVSGFSLTGYGVNWVRQPPGRGLEWIGMIWGDGNTDYNSALKSRVTMLKDTSKNQFSLRLSSVTAADTAVYYCARERDYRLDYWGQGSLVTVSSG,soluble
13,MSVSPVQPDPSVIGGVPKAPFVLKPNLARLFNDRASRFEALAQGSHLAPYLNFLAGITRIQSELVSALPPPEPVPADRVERARANAMPPIDRAAMGGSPDCREVLQQFFEKAEALEKPAAAAEALAQVRTADEEMLTWMIGNVMADDLPVESLAHHLYVAAAMQIQAARLAAGLDGSRLVPIRVGVCPACGGRPVASMVIGFHGAEGARYASCSCCATMWNEVRVKCLACGSTKGIGYQAVETGDEEATVKAEVCDTCNSWMKILYQNKNPSLDVVADDVASLGLDLLMKDTEYKRAGFDPFLMGY,not soluble
14,MKKIHMIPAALLIGSLALVSCAPSQPTQNAQTVSSVMTETPTYTSSSRSVESTAGTIAASEEATMTLLENSSGDPGSDSGGARYSLNSLKVSEQAAANAVLKAVLNDVSYQEFADSSYLEITGTPSADGTWGISFGGPSESASVEFSDGSISFSPVDMTVPATRLPQMGAFYETLTEEQLGMLETGLAVSTVDSSQQEMLLDLVSNSIGLADTETTATAISKIRATLSETYLFGTPDGLTLALSGPHVDFEVSHQGSTAKITYRDPSTDTLTAEDRVDTASVAAAPPEVVLEHHHHHH,not soluble
15,MVPVVALVGRPNVGKSTLFNRLTRTRDALVADFPGLTRDRKYGRAEIEGREFICIDTGGIDGTEDGVETRMAEQSLLAIEEADVVLFMVDARAGLMPADEAIAKHLRSREKPTFLVANKTDGLDPDQAVVDFYSLGLGEIYPIAASHGRGVLSLLEHVLLPWMEDLAPQEEVDEDAEYWAQFEAEENGEEEEEDDFDPQSLPIKLAIVGRPNVGKSTLTNRILGEERVVVYDMPGTTRDSIYIPMERDGREYVLIDTAGVRKRGKITDAVEKFSVIKTLQAIEDANVVMLVIDAREGISDQDLSLLGFILNSGRSLVIVVNKWDGLSQEVKEQVKETLDFRLGFIDFARVHFISALHGSGVGNLFESVREAYDSSTRRVGTSMLTRIMTMAVEDHQPPLVRGRRVKLKYAHAGGYNPPIVVIHGNQVKDLPDSYKRYLMNYFRKSLDVMGSPIRIQFKEGENPYANKRNTLTPTQMRKRKRLMKHIKKNK,not soluble
16,MKNFEWNTSFSFAYMNNEVKHLYGEYENVLDANGNIVGSKEKDEYGKWWIGRPISAIWDYRVTGIWQPDEIEEAKKVGQLPGDPKVANNYTEDDIISSDGSRIPVYNDKDKEFLGQTTSPYILSMRNNFTILKNIDFSFNLYSCIGSKMKDTSYLNQVNASEIDYGLNQSIKEYWTPEHQSNTYARLNSKGPTGVNSPARYIDRSFIRLENISIGYTFPKSIVSRWGLSNLKVYGTIRNAALWTMSHWKLNDIETGGLAPRTYSLGINVTL,not soluble
